Laboratory results: the DeepSol protein solubility set

Assay: soluble on expression in E. coli; label from the status in PepcDB or PDB records
With “MAHHHHHHMDTSARRCFVEVYTDGCDEPRLLQLEPTVKFHNVLRRFDKDGDLYWGDHRIDPQTTPVAVGMDCGVDKANTLWFIPALPRAKPCGVSRVDSTAPLGSPPPVDATEGPALRPARGTSLPAYFDDRAAPWHSSGDHAARGSLIRAWMASASAATTPSWYSRPRLLSPVPLSLPRSAVRVPHTQVQPPSGMPTDPIMHAAGGSRHTGAPVAALEAHGGEKIAPVRRLCAAPAPRAPSPPHSTVPVRRNAPVCIDPHVLVDDTSDAVEALQTELRHLSSEMRAMRLRNPLDYNSVTPMRQVVVRPAGMDAAPAIASPICLSMAEPSVEELATELHDKQMHRLYKQRHLYLTHDFHV” the “soluble on expression in E. coli” value was “not soluble”. With “MIVLGIESSCDETGLAIYDYSKKKLIADELYSQVKLHKKYGGVVPELASREHIAKLNLLAKKIFKETGLSFEDIDCIAYTAMPGLVGALMVGATFAKTLGLIHNIDTIAVHHLEGHLLSPLLDHNSNIEYPFVALLVSGGHTQLFEVKEFGEYSLLGESIDDAAGEAFDKTTKLLGMGYPGGVEVANLADQATDKSKYILPRPMKNKPNLDFSFSGLKTAVLNTWYDEQDQSLENKANLCYAFQDAAIDVLVSKCAKALQKTKNTRLVISGGVSANKLLRHQLDLLAKNRGYQIFFPPMKYCTDNGAMIALAGAYRYVNGFKDSNLEINVKARSPL” the “soluble on expression in E. coli” value was “soluble”. In the case of “MTSSSTPRHRGIFPVVPTTFADTGDLDLASQKRAVDFMIDAGSDGLCILANFSEQFAITDDERDVLTRTILEHVAGRVPVIVTTSHYSTQVCAARSLRAQQLGAAMVMAMPPYHGATFRVPEAQIFEFYARVSDAIAIPIMVQDAPASGTALSAPFLARMAREIEQVAYFKIETPGAANKLRELIRLGGDAIEGPWDGEEAITLLADLHAGATGAMTGGGFPDGIRPILEAWREGRHDDAYARYQAWLPLINHENRQSGILTAKALMREGGVIASERPRHPMPELHPDTRAELLAIARRLDPLVLRWAH”, the “soluble on expression in E. coli” value is reported as “soluble”. In the case of “MAVTWAVSDGRAGNARQAEALARALHPDTVHALHLQARAPWRWAAPRRLPGANSAFGPAFAAQLQQPPGLVIGCGRQAALATRLLRARGSVAVQILDPRLDRRQWDLVVVPEHDALRGENVLTLLGSLHPVDDAWLAAGRAAFPAVGALPGPRVALLIGGPTTQVPWTLQALAAQCNAVQAQVRAAGGSLLITASRRTPPEVVALLRTLQQGNPGLLWCDARDGANPYAGLLGWADAIVASADSVNLLSEACATPVPVVAACAEFARGRVGAYVQALQQRQRLCAADEVLATTAAMTPVRETERIAAQVRMRLGLLEHHHHHH”, the “soluble on expression in E. coli” value is reported as “soluble”. With “MGSDKIHHHHHHMNPPKRLLVIHRALAPYRIELLNTLSAAFDTHIYFEFASPIEQRFDAGELAKRVHFQSSVLPPAPKIPGLKNFRPYAASLVRSLRPDVVLCSEFNLLTLTLTAASRLFSPKTKLYVLCDDNEQMAEAELHYGRGLKHRMLSYVEGVILCDSRACDLYASRFATLDRERFVYLPIVQDEKVLRPLYEQVFGIGRDLRHALIPAGARMILYVGRLSEEKNLPALIDNLSTLPDDVHLVIVGDGPMQSALMNQVQATGHPERIIFAGKKEGAELYAYYTQADCLVLPSMRECFGSVVNEALIAGVPVVCSDIAGASCLVTESNGRTFSPMLPNALSQACNDLLGSIAPFCGDSLRPSLMPFTFERAIAPVLSLLSR” the “soluble on expression in E. coli” value was “not soluble”. In the case of “MLQYRIIVDGRVQGVGFRYFVQMEADKRKLAGWVKNRDDGRVEILAEGPENALQSFVEAVKNGSPFSKVTDISVTESRSLEGHHRFSIVYS”, the “soluble on expression in E. coli” value is reported as “soluble”. With “MGGDMLPSVLKDNLRLPVIASPLFIISHPQLTLAQCKAGVIGAFPALNARPESQLDEWLAMITEELAAYNRANPERPAAPFAVNQIVHMSNRRLEHDLGLCVKYKVPVVISSLGAVPEVNAAVHSYGGIVLHDVINDRHARSAIRKGADGLIAVAAGAGGHAGTLSPFALIQEIREWFDGPLLLAGAIANGGSILAAQAMGADMAYIGSPFIATEEARASDGYKQALVDAQAKDIVYSNYFTGVHGNYLKSSIVASGMDPDNLPEADPSKMDFETATGGAKAWKDIWGAGQGIGAIKAVEPVAALVDRLAAEYEAAKGRICAKA” the “soluble on expression in E. coli” value was “not soluble”. For “MRLYINEIKIKDDILYCYTEDSIKGLSEVGQMLVDSDNYAFAYTLDDGKAYAYLIFVQETWTMLHENTTKKIIINDELELTEFHQELTYILDNIKGNNNYGKEFVATVEETFDIE”, the “soluble on expression in E. coli” value was “not soluble”. For “MGSDKIHHHHHHMDSLTELFCLIDDFCCQFEPALERRLLETGVKKRKRCSGLSLSELMTLTVLFHQLRFRQFKSFYLVYVCRHLQAEFPKLPSYQRCVELLPRCVAPLAALFEMLKGQCDGISIADATAIAVCDNRRIARHRVFADSARRGKTSMGWFYGFKLHAIINSRGELIRLRLTAGNVDDRKPMPDLCQGLFGQLFADKGYLAQWLTEALDQQNLQLITPLRKNMRPVPRTRFEKVILRRRSLIETVFDELKNLCQIEHTRHRSLFNFIVNLMAGIVAYCLSDNKPTLNLTRVNSLAKA”, the “soluble on expression in E. coli” value was “not soluble”. For “MAHHHHHHGPNTNPVAAWKALKEGNERFVAGRPQHPSQSVDHRAGLAAGQKPTAVIFGCADSRVAAEIIFDQGLGDMFVVRTAGHVIDSAVLGSIEYAVTVLNVPLIVVLGHDSCGAVNAALAAINDGTLPGGYVRDVVERVAPSVLLGRRDGLSRVDEFEQRHVHETVAILMARSSAISERIAGGSLAIVGVTYQLDDGRAVLRDHIGNIGEEV”, the “soluble on expression in E. coli” value was “soluble”. With “MSSDIQQIRIGLTNNHPCSYLADRMERVAVAIDPQMQTPETYEVLMANGFRRSGDTIYKPHCDHCQSCQALRIPAPDFVPSKSQKRLLKLLSQEFHWQLKPELDEDWYTLYARYIFARHRHGSMYPPNKMEFAKFARAKWLNTQYLHLYQGEKLVAIAVTDLLPNSASAFYTFYDPDISISLGTLAVLCQLNYCQQTKKQWLYLGYQIDECPAMNYKVRFNPHQRLVNQRWRGLEHHHHHH” the “soluble on expression in E. coli” value was “soluble”. With “MTEHVITSKCESPLLQAFVDNYLLLVKIAARIVGCRSRAEDVVQDAFFRLRSAPQATLTFKAQLSYLFQIVRNLAIDHYRKQALEQKYTGPEAEGLNVVIQGASPEISHINFTSLEKIADALSELPPRTRYAFEMYRLHGVPQKDIAKELGVSPTLVNFMIRDALIHCRKVNGTTAEA” the “soluble on expression in E. coli” value was “not soluble”. In the case of “LRSAARTLYTWTLPNEYELIDVREPHEIEHTPSGAHITLPQSMWNDTTAIQHALDNITTDNVVVVCASGIRSAAFIEQFAHLNPHLTFHNVPSGINELP”, the “soluble on expression in E. coli” value is reported as “not soluble”. In the case of “MRGEFYQQLTNDLETARAEGLFKEERIITSAQQADITVADGSHVINFCANNYLGLANHPDLIAAAKAGMDSHGFGMASVRFICGTQDSHKELEQKLAAFLGMEDAILYSSCFDANGGLFETLLGAEDAIISDALNHASIIDGVRLCKAKRYRYANNDMQELEARLKEAREAGARHVLIATDGVFSMDGVIANLKGVCDLADKYDALVMVDDSHAVGFVGENGRGSHEYCDVMGRVDIITGTLGKALGGASGGYTAARKEVVEWLRQRSRPYLFSNSLAPAIVAASIKVLEMVEAGSELRDRLWANARQFREQMSAAGFTLAGADHAIIPVMLGDAVVAQKFARELQKEGIYVTGFFYPVVPKGQARIRTQMSAAHTPEQITRAVEAFTRIGKQLGVIA”, the “soluble on expression in E. coli” value is reported as “soluble”. With “MGSDKIHHHHHHMNANQFLKAVSQLQGWRECAFLLALAERSFPNYALFADAVGLKTGGKMRQLLDLAWDMLQKDVADAAIPQLLSKLETLCPNVDEYDAYGVYPAFDFCQLLEQALLNRLNPNKHRATEASQLATRTVMDFVEMSEGEGMDENELVRVFEHHPLLKDDKLFQRDTVMALKKQRTPKEAFLAELRAGAANDGVSNLGISLEG” the “soluble on expression in E. coli” value was “not soluble”. For “MGSDKIHHHHHHANVEVQKENFVFSIKGTDTLSLDKYELPSISPASKKPVMIFAFGGGFKGGDKADKGYIPYFEFLARNGFVVVSTDYRTTLKNLDPSKVSSPMDFIAALQHAIDTAVEDFYDATGFVINQSSDWNIDVEQIVASGSSAGAITVLQAEYDLCNGHELAKRLPAGFNYAGVISYAGAVSGVLPPHWEKMPCPIMLFHGDADKTVPFEQAAMENLGGLWGSSAVAKSLENLQASYYFYKVENAGHEISGLPMSRNQYDIMSFLSRQVLGDENLAITTDERVPGDTIVRKDFTVQDYILDNLR”, the “soluble on expression in E. coli” value was “not soluble”.
